Experimental data reported in article PMC4931181 (The EMBO Journal, 2016).
Where “and” joins values, the source holds several entries; their conditions need not be identical. Equal values may be shown once.

What was measured:
native MS = target: the molecule itself; assay: native MS
[1] = target: Xenopus laevis histone H2B (28–126) (Xenopus laevis, UniProt P02281 28-126); assay: crystal structure

Binder | binding result (native MS) | stoichiometry N (native MS) | binding result [1]
yNap1cΔ (core 75–365 with in-frame deletion of the β5–β6 region, Δ284–308) (domain or fragment) GSLVGQDSGYVGGLPKNVKEKLLSLKTLQSELFEVEKEFQVEMFELENKFLQKYKPIWEQRSRIISGQEQPKPEQIAKGQEIVESLNETELLVDEEEKAQNDSEEEQVKGIPSFWLTALENLPIVCDTITDRDAEVLEYLQDIGLEYLTDGRPGFKLLFRFDSSANPFFTNDILCKTYFYQKELGYSGDFIYDHAEGCEISWKDNAHNVIESFFNFFDPPKIQNEDQDEELEEDLEERLALDYSIGEQLKDKLIPRAVDWFTGAAL | binds | – | –
yNap1cΔ_G225D (domain or fragment) GSLVGQDSGYVGGLPKNVKEKLLSLKTLQSELFEVEKEFQVEMFELENKFLQKYKPIWEQRSRIISGQEQPKPEQIAKGQEIVESLNETELLVDEEEKAQNDSEEEQVKGIPSFWLTALENLPIVCDTITDRDAEVLEYLQDIGLEYLTDDRPGFKLLFRFDSSANPFFTNDILCKTYFYQKELGYSGDFIYDHAEGCEISWKDNAHNVIESFFNFFDPPKIQNEDQDEELEEDLEERLALDYSIGEQLKDKLIPRAVDWFTGAAL | – | 2 | –
Saccharomyces cerevisiae Nap1 full-length (residues 1–417) (natural protein) MSDPIRTKPKSSMQIDNAPTPHNTPASVLNPSYLKNGNPVRAQAQEQDDKIGTINEEDILANQPLLLQSIQDRLGSLVGQDSGYVGGLPKNVKEKLLSLKTLQSELFEVEKEFQVEMFELENKFLQKYKPIWEQRSRIISGQEQPKPEQIAKGQEIVESLNETELLVDEEEKAQNDSEEEQVKGIPSFWLTALENLPIVCDTITDRDAEVLEYLQDIGLEYLTDGRPGFKLLFRFDSSANPFFTNDILCKTYFYQKELGYSGDFIYDHAEGCEISWKDNAHNVTVDLEMRKQRNKTTKQVRTIEKITPIESFFNFFDPPKIQNEDQDEELEEDLEERLALDYSIGEQLKDKLIPRAVDWFTGAALEFEFEEDEEEADEDEDEEEDDDHGLEDDDGESAEEQDDFAGRPEQAPECKQS | – | 2 and 4 and 6 | –
Saccharomyces cerevisiae Nap1 core domain (residues 75–365) (domain or fragment) GSLVGQDSGYVGGLPKNVKEKLLSLKTLQSELFEVEKEFQVEMFELENKFLQKYKPIWEQRSRIISGQEQPKPEQIAKGQEIVESLNETELLVDEEEKAQNDSEEEQVKGIPSFWLTALENLPIVCDTITDRDAEVLEYLQDIGLEYLTDGRPGFKLLFRFDSSANPFFTNDILCKTYFYQKELGYSGDFIYDHAEGCEISWKDNAHNVTVDLEMRKQRNKTTKQVRTIEKITPIESFFNFFDPPKIQNEDQDEELEEDLEERLALDYSIGEQLKDKLIPRAVDWFTGAAL | – | 2 and 4 and 6 | binds
